According to publication PMC8609364, “A Selective Tether Recruits Activated Response Regulator CheB to Its Chemoreceptor Substrate” (mBio, 2021):

B1: CheBC, catalytic domain of E. coli CheB lacking the regulatory domain and linker (domain or fragment)
chain: LSSEKLIAIGASTGGTEAIRHVLQPLPLSSPALLITQHMPPGFTRSFADRLNKLCQIGVKEAEDGERVLPGHAYIAPGDRHMELSRSGANYQIKIHDGPAVNRHRPSVDVLFHSVAKQAGRNAVGVILTGMGNDGAAGMLAMRQAGAWTLAQNEASCVVFGMPREAINMGGVCEVVDLSQVSQQMLAKISAGQAIRI
B2: methylesterase/deamidase CheB from E. coli, low-activity, unphosphorylated form (enzyme, UniProt P07330 1-349, looked up)
chain: MSKIRVLSVDDSALMRQIMTEIINSHSDMEMVATAPDPLVARDLIKKFNPDVLTLDVEMPRMDGLDFLEKLMRLRPMPVVMVSSLTGKGSEVTLRALELGAIDFVTKPQLGIREGMLAYNEMIAEKVRTAAKASLAAHKPLSAPTTLKAGPLLSSEKLIAIGASTGGTEAIRHVLQPLPLSSPALLITQHMPPGFTRSFADRLNKLCQIGVKEAEDGERVLPGHAYIAPGDRHMELSRSGANYQIKIHDGPAVNRHRPSVDVLFHSVAKQAGRNAVGVILTGMGNDGAAGMLAMRQAGAWTLAQNEASCVVFGMPREAINMGGVCEVVDLSQVSQQMLAKISAGQAIRI
notes: CheB methylesterase/deamidase of E. coli, unphosphorylated, from plasmid pCW/cheB; measured with 2 mM DTT in the buffer; also called low-activity CheB; unmodified CheB; source: E. coli K-12 RP3098 with pCW/cheB, purified

Columns and labels:
[1] = system: Tar4E (chemoreceptor Tar, all-glutamyl, pentapeptide-bearing); assay: CheB binding to pentapeptide-bearing Tar4E in Nanodiscs (biolayer interferometry); design: species or system E. coli; details: Tar 4E, pentapeptide yes, BLI; for dwell time (1/koff) / KA (equilibrium association constant) / kon (apparent association rate constant): pH 7.5, 2% BSA (plus 2 mM DTT for CheB and CheBc); for dwell time (1/koff): calculated from mean koff; for kon (apparent association rate constant): mean ± SD of at least three independent experiments
Description: We determined the kinetics of association and dissociation of methylesterase/deamidase CheB in its low- and high-activity form with the E. coli aspartate chemoreceptor Tar using biolayer interferometry ([22], [23]) and isolated receptor homodimers in Nanodiscs ([24], [25]). Apparent rate constants of association and dissociation were derived from global fits of time courses for binding and release (see Fig. S1 in the supplemental material). Equilibrium dissociation constants were calculated from those apparent rate constants.
Supplementary file : FIG S1 Example time courses of CheB binding to Tar. Time courses from five consecutive runs of CheB at different concentrations binding to immobilized Tar4E homodimers. For each time course, a sensor tip decorated with avidin to which were bound biotinylated Tar homodimers in Nanodiscs was placed in buffer and a baseline was established (240 to 255 s). The tip was then placed in a tube containing a solution of CheB at a specific concentration. After 30 s, at which time binding of CheB and Tar was close to an apparent equilibrium, the tip was switched to a tube of buffer, and dissociation was monitored. The global fit to the data is shown as a thin black line. Download FIG S1, TIF file, 1.9 MB.
E. coli CheB and Salmonella CheB D56C/C207S/C309S and D56C/S164A/C207S/C309S were purified as described previously ([11]). CheBC (amino acids [aa] 153 to 349) was purified using the procedure of West et al. ([40]), except that Bio-Gel P-60, was not used. CheB D56C/C207S/C309S and CheB D56C/S164A/C207S/C309S were modified to create a disulfide-linked phosphoryl group on D56C following the procedure described in reference but using a 10-fold molar excess of DTNB [Ellman’s reagent, 5,5′-disulfanediylbis(2-nitrobenzoic acid)] rather than 90-fold and a 50-fold molar excess Na3SPO3 rather than 1,000-fold. The extent of modification was 59% for the former and 60% for the latter determined by reversed phase chromatography essentially as described previously ([26]) and confirmed by Nano LC-Nanospray QTQF mass spectroscopy. Membrane scaffold protein MSP1D1(-) ([41]) was purified as described previously ([25]). Tar4E L378C, Tar4Q L378C, Tar4EΔpp-6H L378C, and Tar4QΔpp-6H L378C were purified, incorporated into Nanodiscs at approximately one receptor dimer per disc, and biotinylated at L378C as described previously ([23], [42]). […] These activities were confirmed for representative samples used in our analyses. Receptor-containing Nanodiscs were dialyzed into 50 mM Tris-HCl (pH 7.5), 0.5 mM EDTA, 10% (wt/vol) glycerol, and 100 mM NaCl. Prior to a binding experiment, the solution was changed using a spin desalting column to 50 mM Tris-HCl, 10% (wt/vol) glycerol, 5 mM MgCl2, and 50 mM KCl (pH 7.5).
Kinetics of CheB association and dissociation with Nanodisc-embedded Tar biotinylated at L378C were determined using biolayer interferometry ([22], [23]) as measured by a BLItz instrument (ForteBio, Menlo Park, CA, USA) and described in reference. Representative time course experiments are shown in Fig. S1 in the supplemental material. Measurements for CheB-P* and CheB-P*-I were in 50 mM Tris-HCl (pH 7.5), 10% (wt/vol) glycerol, 5 mM MgCl2, 50 mM KCl, and 2% (wt/vol) bovine serum albumin (BSA). Measurements for CheB and CheBc were in the same solution plus 2 mM dithiothreitol (DTT).
Using BLItz software, response curves were fit globally to a 1:1 binding model to yield apparent association rate constants (kon) and dissociation rate constants (koff). For analysis of complex patterns of binding, in which more than one binding reaction appeared to be contributing, for instance one that appeared saturable and another nonspecific, nonsaturable, the data were exported and fit globally to nonlinear exponential functions using OriginPro 2017. The best fits to the data were obtained using the following functions. […]

[2] = target: Tar4EΔpp-6H L378C, E. coli Tar lacking the carboxyl-terminal pentapeptide, all-glutamyl form, homodimer in … (E. coli, UniProt P07017 1-553, L378C, biotinylated at L378C); assay: SPR
[3] = target: Tar4E L378C, E. coli aspartate chemoreceptor Tar, all-glutamyl form with carboxyl-terminal pentapeptide, … (E. coli, UniProt P07017 1-553, L378C, biotinylated at L378C); assay: SPR
[4] = target: Tar4Q L378C, E. coli aspartate chemoreceptor Tar, all-glutaminyl form with carboxyl-terminal pentapeptide, … (E. coli, UniProt P07017 1-553, L378C, biotinylated at L378C); assay: SPR
[5] = target: Tar4QΔpp-6H L378C, E. coli Tar lacking the carboxyl-terminal pentapeptide, all-glutaminyl form, homodimer in … (E. coli, UniProt P07017 1-553, L378C, biotinylated at L378C); assay: SPR
TarQEQE = details: pulldown assay, pentapeptide at carboxyl terminus of TarQEQE in native membrane, unphosphorylated CheB; ref [21]; read-out: equilibrium dissociation constant [KD]; cited from earlier work
[6] = target: Tar4E L378C, E. coli aspartate chemoreceptor Tar, all-glutamyl form with carboxyl-terminal pentapeptide, homodimer in Nanodiscs (E. coli) (UniProt P07017); assay: BLI; BLItz; biotinylated Tar homodimers in Nanodiscs held on an avidin sensor tip, CheB or CheBC in solution; 50 mM Tris-HCl pH 7.5, 10% glycerol, 5 mM MgCl2, 50 mM KCl, 2% BSA, 2 mM DTT; global fit, apparent rate constants, KD calculated from kon and koff
[7] = target: Tar4Q L378C, E. coli aspartate chemoreceptor Tar, all-glutaminyl form with carboxyl-terminal pentapeptide, homodimer in Nanodiscs (E. coli) (UniProt P07017); assay: as above
[8] = calculated from mean kon and koff, propagated SD

Row | Molecule | dwell time (1/koff) ([1]; propagated SD) | KA (equilibrium association constant) [1, 8] | kon (apparent association rate constant) [1] | koff [2] | koff [3] | koff [4] | koff [5] | Kd ([1]; 50 mM Tris-HCl pH 7.5, 10% glycerol, 5 mM MgCl2, 50 mM KCl, 2% BSA (plus 2 mM DTT for CheB and CheBc), calculated from mean kon and koff, propagated SD, read-out: KD (equilibrium dissociation constant)) | Kd (TarQEQE) | Kd [6] | Kd [7]
1 | B1 | 2.1 ± 0.1 s | 1.7 ± 0.4 10^3 M^-1 | 810 ± 200 M⁻¹ s⁻¹ | 0.44 s⁻¹ | 0.48 s⁻¹ | 0.48 s⁻¹ | 0.58 s⁻¹ |  |  |  | 
2 | B2 | 2.8 ± 0.2 s | 4.4 ± 1 10^3 M^-1 | 1,600 ± 420 M^-1s^-1 | 0.64 s⁻¹ | 0.36 s⁻¹ | 0.46 s⁻¹ | 0.65 s⁻¹ | 230 ± 60 µM | ~150 µM | 230 µM | 160 µM
